Source: the supplement of paper PMC12764529
± gives the half width of the 95% confidence interval.

Assays:
[1] = folding stability dG unfold from trypsin proteolysis; higher = more stable
How it was run: (§1)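 How resistant each design was to proteolysis was captured as K50, inferred by Bayesian fitting of sequencing counts. Unfolding free energy was then derived relative to a sequence-predicted unfolded-state K50 and a shared folded-state K50, per protease or combined. Digestion used trypsin and chymotrypsin at 11 threefold-diluted concentrations plus a no-protease condition, on mini-proteins under 80 residues without cysteine in a PA-tagged cDNA display construct. Designs were kept only when AlphaFold2 dimer inter-PAE was above 15.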

[2] = folding stability dG unfold from chymotrypsin proteolysis; higher = more stable
How it was run: as §1

[3] = folding stability dG unfold (combined trypsin and chymotrypsin); higher = more stable
How it was run: as §1

Sequence	folding stability dG unfold [1]	folding stability dG unfold [2]	folding stability dG unfold [3]
SAGMMTVEELKEKLKEAAEKAGVKVKEIKITGPDGKEITVEVDLSEEQLKKLAEELGLEIDEVEVREPSAGG [r19_50_TrROS_Hall]	1.3 ± 0.099 kcal/mol	1.75 ± 0.092 kcal/mol	1.67 ± 0.2 kcal/mol
SAGGSAMITLEVEVPPGNAEEAAEAVAEELAEKLGVEVTIEKVEVEYDPVTNLTRVPVEIKINPPLSAGGSA [r15_70_JUSTAS]	1.18 ± 0.071 kcal/mol	0.557 ± 0.11 kcal/mol	0.618 ± 0.24 kcal/mol
SAGSAEEIAKKLAEELRKAGYEVKVKVVEVEKVGDGKVVVRVEIEVTYYDKNGKPVKKERFELTIVLPSAGG [r19_418_TrROS_Hall]	2.99 ± 0.12 kcal/mol	4.69 ± 0.27 kcal/mol	4.25 ± 0.19 kcal/mol
SFKLEKTITLPDYVLKIEVTFKPKPDKTVIAPIKVTIYDPVKKKPYTKELTKPFPPEDPLKFVEEALKEIFS [r1_171_TrMRF]	0.425 ± 0.1 kcal/mol	0.235 ± 0.42 kcal/mol	0.438 ± 0.33 kcal/mol
SAGMPETITIKIRNPETGKLYEIEIEKVDGEVKVTIRDVETGKERREITMTPEEVRELLKELGFEVEEVSAG [r5_291_TrROS_Hall]	1.42 ± 0.049 kcal/mol	3.1 ± 0.056 kcal/mol	2.63 ± 0.059 kcal/mol
SAGGSAKDEKVVVIVRREVRLRSRPKVDLGEGNPRVEFESSVEVRVPFLVLPEDDPVARELRELEGSAGGSA [r15_470_TrMRF]	-0.46 ± 0.21 kcal/mol	-0.255 ± 0.24 kcal/mol	-0.26 ± 0.1 kcal/mol
SAGFYFRITEITVNPDAGKLTIRNPNGQEQEIPPGGKISIKMRFYRFNDNGGKPETFEMEHTIPIPPGDSAG [r14_366_TrROS]	2.62 ± 0.042 kcal/mol	3.43 ± 0.085 kcal/mol	3.15 ± 0.12 kcal/mol
SEEEIVEEPPPETRTLTLELVDPETGELVATITVSPDGTVTLTVRTPDGEEKTITVPEGMSLEEALAAALSA [r9_346_TrROS_Hall]	3.19 ± 0.21 kcal/mol	4.39 ± 0.24 kcal/mol	4.18 ± 0.45 kcal/mol
SAGKVKIVKIDKGKNKITIEFYDDGKKIATIPFPPNFPNTKVIAEVNEDGSIKVTFISGDKPIEITIDASAG [r5_533_TrMRF]	2.57 ± 0.16 kcal/mol	2.64 ± 0.1 kcal/mol	2.59 ± 0.12 kcal/mol
SAGGSAGGSAGGEPIPTKTIEVDEATGTVTVTVTFPPPNETVTVTRPAPPDVSLEEVLASAGGSAGGSAGGS [r10_676_JUSTAS]	1.07 ± 0.17 kcal/mol	1.58 ± 0.15 kcal/mol	1.59 ± 0.15 kcal/mol
SAGGSAGGSAGPPVTLDEIRDHLPPENIEDVEVNPPEGWVVIEFKPPGGEKQEITIRADDSAGGSAGGSAGG [r17_374_TrROS]	0.198 ± 0.062 kcal/mol	0.271 ± 0.021 kcal/mol	0.277 ± 0.13 kcal/mol
SAGSSETYSFKSPEEAKKKLKEEYGVSVEELPGNRVRINLVLDNKPVVVLIDTSTNLATVVSPEVVERKSAG [r14_402_JUSTAS]	-0.219 ± 0.21 kcal/mol	-0.291 ± 0.8 kcal/mol	-0.257 ± 0.23 kcal/mol
SAGGSAGGSLEVKVLGIVGDKPVEVTLPAGLGELTLEEIRAAFPPGEWRLVLRDENGNETPLTSAGGSAGGS [r12_540_TrMRF]	0.663 ± 0.089 kcal/mol	-0.00936 ± 0.18 kcal/mol	0.446 ± 0.16 kcal/mol
SAGGSAGGSAEEVTVTVKIERTTEDGEKVEETITVTVPAEKLDELKKAAEEAGFTVVEVTPSAGGSAGGSAG [r3_453_TrROS_Hall]	2.68 ± 0.14 kcal/mol	2.19 ± 0.14 kcal/mol	2.38 ± 0.1 kcal/mol
SAGGSAGGSAGGPKIEVNEDGTVTITLEVDGKLVTKTVKVELEAPPVETVEFVKEGEEVSAGGSAGGSAGGS [r10_240_TrROS_Hall]	0.822 ± 0.043 kcal/mol	1.21 ± 0.046 kcal/mol	1.02 ± 0.077 kcal/mol
MIIIPNATPEEVKKIILDAAKKGKEIEILIEVDPNLGPKVIKALKDLPYVKKVEPLPDGSIKVYIDKKNLKS [r1_324_TrMRF]	1.71 ± 0.038 kcal/mol	3.24 ± 0.048 kcal/mol	2.89 ± 0.093 kcal/mol
SAGGSADGRVVELPVRIRLYRRDPVSGRWELVEEFEVPVRVPAPKDAVVGLRIERRGDRFRIVVGVSAGGSA [r15_537_TrMRF]	2.74 ± 0.08 kcal/mol	3.537 ± 0.019 kcal/mol	3.25 ± 0.07 kcal/mol
SAGGMKKITITIPLEELKNLTPEERKEKLKELAEEIAKKLGLPPGAKIKKIEVEEVDGKLYVKIEIESAGGS [r16_368_TrROS_Hall]	3.82 ± 0.18 kcal/mol	3.93 ± 0.066 kcal/mol	3.92 ± 0.1 kcal/mol
SAGGSAGGSAGGKTIVVELEDGSKATITVDEDGNVTVEVYDEKTGEKKTFTIPAEALKPSAGGSAGGSAGGS [r10_838_TrROS_Hall]	2.53 ± 0.16 kcal/mol	2.95 ± 0.066 kcal/mol	2.73 ± 0.16 kcal/mol
SAGSYKLVVKAKAPKGPARIRVFVRLPGGEEKPVAEAEVGSGEVADIEITFPSGKPIDPKNIRVEIVPPSAG [r5_287_TrMRF]	1.88 ± 0.03 kcal/mol	1.65 ± 0.066 kcal/mol	1.8 ± 0.058 kcal/mol
SAGGSAGGSAGGWAFMWVIEIEMPPEQMPPEDMKKFPNMRIEIEPYWVPIKIDPENGELRSAGGSAGGSAGG [r17_310_TrROS]	1.71 ± 0.075 kcal/mol	2.68 ± 0.04 kcal/mol	2.5 ± 0.19 kcal/mol

Sequence	folding stability dG unfold [1]	folding stability dG unfold [2]	folding stability dG unfold [3]
SMVKIYFPNAPPELVAEAIEKHPDSTVEIYFEPGKPDVFESILKDYDVEVEPFPTEDGRLLVKARVKVPGSA [r9_1138_TrMRF]	2.11 ± 0.13 kcal/mol	1.32 ± 0.12 kcal/mol	1.74 ± 0.29 kcal/mol
SAGGSAGGSAGGNWVTIWIPFKMTHYRPDPDGKMYPHKHEMPRPITIPPGQATEDALDKISAGGSAGGSAGG [r7_777_TrROS]	0.165 ± 0.12 kcal/mol	0.762 ± 0.14 kcal/mol	0.595 ± 0.11 kcal/mol
SAGGSAGGSISIDPAKVLEVKTRANGQLLITTEDEVYVVDPSTGTVTKITKEEAEKLPEDVPLLSAGGSAGG [r6_890_JUSTAS]	1.9 ± 0.042 kcal/mol	1.94 ± 0.037 kcal/mol	1.96 ± 0.15 kcal/mol
SAGGSAGGSAGGMRKYLVTLKPPNGPVTRYILPSEEEIKEFVAPLNAEYEVTPLSEDVPPSAGGSAGGSAGG [r7_456_JUSTAS]	0.0557 ± 0.1 kcal/mol	0.72 ± 0.072 kcal/mol	0.515 ± 0.088 kcal/mol
SAGGVPLLSAELLTTDETGNRTYRLVYYDPSTGKVYEVVVSQPFPTGDFNPFLFTASSLEEALELVTSSAGG [r13_26_TrMRF]	2.61 ± 0.057 kcal/mol	2.81 ± 0.038 kcal/mol	2.7 ± 0.038 kcal/mol
SAGGSAGGSAGGKVSEIDLSGDKVVVTVKGPGGSVVREVHPDKTLEQVLDELLENPELVDSAGGSAGGSAGG [r7_373_TrMRF]	-0.176 ± 0.1 kcal/mol	1.55 ± 0.05 kcal/mol	1.13 ± 0.057 kcal/mol
SAGGSAGGSAGGTGPDTPVTIETTVESVVYEGPEVKVVETFEKKITVTIPPTANPEKVSLSAGGSAGGSAGG [r7_591_JUSTAS]	-0.81 ± 0.43 kcal/mol	-1.06 ± 0.31 kcal/mol	< -1 kcal/mol
SAGGSAMVTVTRYPDGTYVVEATGRGDSRTFTLDLPLEEIKEVLEKEGIKIDKIEVKPAPVDPAKVSAGGSA [r15_576_JUSTAS]	1.268 ± 0.012 kcal/mol	1.5 ± 0.034 kcal/mol	1.4 ± 0.05 kcal/mol
MMLIIKVKNKKTGKTETIKIDMSVEEIKNAIKELKKKNPNAKVTIIGVKTEEVRKALKEAGIEKIEVKPLPS [r1_114_TrROS_Hall]	3.01 ± 0.23 kcal/mol	3.5 ± 0.22 kcal/mol	3.51 ± 0.31 kcal/mol
SAGGSAGGSMTLKVTLPNGKVIELPLPEELENIPAETIAKLLGEENVRLELYSPDGVPYDFGASAGGSAGGS [r12_411_TrMRF]	1.18 ± 0.029 kcal/mol	0.726 ± 0.09 kcal/mol	1.03 ± 0.099 kcal/mol
SAPKILKVETFPDGSIKVEIPLPETGAIVTITVDPDGNVVVEFYPPKSGKPVRKTIPGKTIEEVLKELGSAG [r14_760_TrMRF]	1.41 ± 0.086 kcal/mol	1.83 ± 0.052 kcal/mol	1.63 ± 0.12 kcal/mol
SKKKKTIVIELTKDELKELLKKLKVEEGDEVEIFVRNKDGSIYKLTIKNGKITKIEPFKGVPNKVVIVIKSA [r9_849_TrROS_Hall]	1.84 ± 0.067 kcal/mol	3.49 ± 0.068 kcal/mol	3.07 ± 0.3 kcal/mol
SAGGSAGGSAMPLTSPEEAARHIKEALERLFPSSFPDRVIDPDVVVFTRPDGRVVALVKLKASAGGSAGGSA [r18_440_TrMRF]	0.877 ± 0.023 kcal/mol	1.27 ± 0.073 kcal/mol	1.11 ± 0.068 kcal/mol
SAGGSVIVKLPNGKILEVSPSELAGYKPGAAVKFPDGTAQVVNPETDEVIDIPIDSPEKIIEAIKKAASAGG [r13_962_TrMRF]	0.0192 ± 0.1 kcal/mol	0.365 ± 0.077 kcal/mol	0.163 ± 0.24 kcal/mol
SAGGSAGGNPVRYRVTITVTSPTGGSPVIELELDDPAELAEVEALAAELAAAPVTTTVTVEPIGSAGGSAGG [r6_743_JUSTAS]	1.02 ± 0.049 kcal/mol	0.584 ± 0.14 kcal/mol	0.807 ± 0.072 kcal/mol
SMKINVVINITLPDGTTVTSTLNLTESEIEKTIKEKIPSSYKVEITKKDPVDPAKLPPGSSINVDLTVNLSA [r9_803_JUSTAS]	1.31 ± 0.079 kcal/mol	1.69 ± 0.15 kcal/mol	1.59 ± 0.22 kcal/mol
SAGGSAPPTYTFMIPIKEIYVPDPDNGKPKPIPVEEFADFLMPKFGIDVEILDVHPDWIQITVTPDSAGGSA [r15_55_TrROS]	1.81 ± 0.11 kcal/mol	1.49 ± 0.091 kcal/mol	1.73 ± 0.19 kcal/mol
SAFRFPPGQTIMIKIEWRNPGNGKKRKWSIPIRVDPDKGRVITLDMLKSFLRKWGFNPEDVKIEDITVMSAG [r14_93_TrROS]	2.145 ± 0.013 kcal/mol	1.31 ± 0.069 kcal/mol	1.81 ± 0.041 kcal/mol
SAGGSAGGKIDLKDLKIVKIETVKNENGETFYRVVIEVDGKKIVLTVPENMSLEELLKKLKELSSAGGSAGG [r6_232_TrROS_Hall]	3.36 ± 0.13 kcal/mol	4.22 ± 0.055 kcal/mol	4.07 ± 0.081 kcal/mol
SAGGSAEKKVLKVKVEVVSVEVNEDGTVTVTAKVTFEDGLELTVTVTFDKETGELTIEVELRPLPPSAGGSA [r15_401_TrROS_Hall]	2.42 ± 0.22 kcal/mol	3.48 ± 0.15 kcal/mol	3.13 ± 0.15 kcal/mol
SAGAKAEPGPSGRLRIYLPDEPIELDVTEDGTVTLTFPNGEKVEFPVEKEKAALVLAELNALGAVVVPQSAG [r5_753_TrMRF]	-0.367 ± 0.19 kcal/mol	1.09 ± 0.055 kcal/mol	0.712 ± 0.084 kcal/mol
